Data on 1 protein can be found in article PMC4391858.

Series [1] can be described thus: confocal immunocytochemistry of coexpressed DLL1, CHO cells. Particulars: glycan lost; control: wild type DLL3.
The nature of series [2]: cycloheximide chase, Western blot, CHO cells. As to conditions: glycan lost; control: wild type DLL3.

B1: Delta-like 3 (DLL3): DLL3-S286A,T403V (protein)
parent chain: MVSLQVSPLSQTLILAFLLPQALPAGVFELQIHSFGPGPGLGTPRSPCNARGPCRLFFRVCLKPGVSQEATESLCALGAALSTSVPVYTEHPGESAAALPLPDGLVRVPFRDAWPGTFSLVIETWREQLGEHAGGPAWNLLARVVGRRRLAAGGPWARDVQRTGTWELHFSYRARCEPPAVGAACARLCRSRSAPSRCGPGLRPCTPFPDECEAPSVCRPGCSPEHGYCEEPDECRCLEGWTGPLCTVPVSTSSCLNSRVPGPASTGCLLPGPGPCDGNPCANGGSCSETSGSFECACPRGFYGLRCEVSGVTCADGPCFNGGLCVGGEDPDSAYVCHCPPGFQGSNCEKRVDRCSLQPCQNGGLCLDLGHALRCRCRAGFAGPRCEHDLDDCAGRACANGGTCVEGGGSRRCSCALGFGGRDCRERADPCASRPCAHGGRCYAHFSGLVCACAPGYMGVRCEFAVRPDGADAVPAAPRGLRQADPQRFLLPPALGLLVAAGLAGAALLVIHVRRRGPGQDTGTRLLSGTREPSVHTLPDALNNLRLQDGAGDGPSSSADWNHPEDGDSRSIYVIPAPSIYAREDWLIQVLF
As to B1, in series [1], the “localisation_or_trafficking, other: cells with DLL1 relocalised outside Golgi” value is listed as “decreases, the intracellular DLL1 staining did not change obviously (10 out of 14 cells”. For the same protein, the degradation_or_half_life entry in series [2] is listed as “no change”.
